Starred links: 1 amine or outer side, 2 acyl side, 3 side chain; linkers in the order of their positions; H or OH if unused. Non-standard residues stand in square brackets, D forms with d. Groups on a side chain read outwards from the residue. No end group written: not given here. *: point of attachment. C18 diacid = O=C(O)CCCCCCCCCCCCCCCCC(=O)*; C16 diacid = O=C(O)CCCCCCCCCCCCCCC(=O)*; γGlu = O=C(O)[C@H](CCC(=O)[*:2])N[*:1]; Glutaryl = O=C(CCCC(=O)[*:2])[*:1]; AEEA = NCCOCCOCC(=O)O; Aib = CC(C)(N)C(=O)O
T1: human GIP receptor (human, UniProt P48546 22-466)
T1 sequence (looked up): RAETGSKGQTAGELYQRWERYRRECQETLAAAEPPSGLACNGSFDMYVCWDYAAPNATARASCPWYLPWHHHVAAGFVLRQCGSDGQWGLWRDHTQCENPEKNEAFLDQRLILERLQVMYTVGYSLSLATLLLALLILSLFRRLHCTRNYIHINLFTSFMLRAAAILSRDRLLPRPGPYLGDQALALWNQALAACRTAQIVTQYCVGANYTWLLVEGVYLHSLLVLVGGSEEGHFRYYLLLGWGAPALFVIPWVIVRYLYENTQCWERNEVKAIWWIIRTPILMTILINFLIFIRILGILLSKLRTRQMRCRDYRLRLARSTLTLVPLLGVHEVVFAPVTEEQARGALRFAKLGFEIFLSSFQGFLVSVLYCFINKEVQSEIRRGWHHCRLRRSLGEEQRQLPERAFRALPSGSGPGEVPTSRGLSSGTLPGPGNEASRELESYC

B1: AT617 (peptide)
peptide: EGTFISDYSIAMDKIK(C16 diacid)QQDFVEWLLAQKPSSGAPPPS-OH
modifications: N-terminus assumed
SMILES: CC[C@H](C)[C@H](NC(=O)[C@H](CO)NC(=O)[C@H](Cc1ccc(O)cc1)NC(=O)[C@H](CC(=O)O)NC(=O)[C@H](CO)NC(=O)[C@@H](NC(=O)[C@H](Cc1ccccc1)NC(=O)[C@@H](NC(=O)CNC(=O)[C@@H](N)CCC(=O)O)[C@@H](C)O)[C@@H](C)CC)C(=O)N[C@@H](C)C(=O)N[C@@H](CCSC)C(=O)N[C@@H](CC(=O)O)C(=O)N[C@@H](CCCCN)C(=O)N[C@H](C(=O)N[C@@H](CCCCNC(=O)CCCCCCCCCCCCCCC(=O)O)C(=O)N[C@@H](CCC(N)=O)C(=O)N[C@@H](CCC(N)=O)C(=O)N[C@@H](CC(=O)O)C(=O)N[C@@H](Cc1ccccc1)C(=O)N[C@H](C(=O)N[C@@H](CCC(=O)O)C(=O)N[C@@H](Cc1c[nH]c2ccccc12)C(=O)N[C@@H](CC(C)C)C(=O)N[C@@H](CC(C)C)C(=O)N[C@@H](C)C(=O)N[C@@H](CCC(N)=O)C(=O)N[C@@H](CCCCN)C(=O)N1CCC[C@H]1C(=O)N[C@@H](CO)C(=O)N[C@@H](CO)C(=O)NCC(=O)N[C@@H](C)C(=O)N1CCC[C@H]1C(=O)N1CCC[C@H]1C(=O)N1CCC[C@H]1C(=O)N[C@@H](CO)C(=O)O)C(C)C)[C@@H](C)CC
B2: AT616 (peptide)
peptide: EGTFISEYSI[Aib]MEKIK(C16 diacid)QQDFVEWLLAQKPSSGAPPPS-OH
modifications: N-terminus assumed
SMILES: CC[C@H](C)[C@H](NC(=O)[C@H](CCCCN)NC(=O)[C@H](CCC(=O)O)NC(=O)[C@H](CCSC)NC(=O)C(C)(C)NC(=O)[C@@H](NC(=O)[C@H](CO)NC(=O)[C@H](Cc1ccc(O)cc1)NC(=O)[C@H](CCC(=O)O)NC(=O)[C@H](CO)NC(=O)[C@@H](NC(=O)[C@H](Cc1ccccc1)NC(=O)[C@@H](NC(=O)CNC(=O)[C@@H](N)CCC(=O)O)[C@@H](C)O)[C@@H](C)CC)[C@@H](C)CC)C(=O)N[C@@H](CCCCNC(=O)CCCCCCCCCCCCCCC(=O)O)C(=O)N[C@@H](CCC(N)=O)C(=O)N[C@@H](CCC(N)=O)C(=O)N[C@@H](CC(=O)O)C(=O)N[C@@H](Cc1ccccc1)C(=O)N[C@H](C(=O)N[C@@H](CCC(=O)O)C(=O)N[C@@H](Cc1c[nH]c2ccccc12)C(=O)N[C@@H](CC(C)C)C(=O)N[C@@H](CC(C)C)C(=O)N[C@@H](C)C(=O)N[C@@H](CCC(N)=O)C(=O)N[C@@H](CCCCN)C(=O)N1CCC[C@H]1C(=O)N[C@@H](CO)C(=O)N[C@@H](CO)C(=O)NCC(=O)N[C@@H](C)C(=O)N1CCC[C@H]1C(=O)N1CCC[C@H]1C(=O)N1CCC[C@H]1C(=O)N[C@@H](CO)C(=O)O)C(C)C
B3: AT614 (peptide)
peptide: EGTFISEYSIAMEKIK(C16 diacid)QQEFVEWLLAQKPSSGAPPPS-OH
modifications: N-terminus assumed
SMILES: CC[C@H](C)[C@H](NC(=O)[C@H](CO)NC(=O)[C@H](Cc1ccc(O)cc1)NC(=O)[C@H](CCC(=O)O)NC(=O)[C@H](CO)NC(=O)[C@@H](NC(=O)[C@H](Cc1ccccc1)NC(=O)[C@@H](NC(=O)CNC(=O)[C@@H](N)CCC(=O)O)[C@@H](C)O)[C@@H](C)CC)C(=O)N[C@@H](C)C(=O)N[C@@H](CCSC)C(=O)N[C@@H](CCC(=O)O)C(=O)N[C@@H](CCCCN)C(=O)N[C@H](C(=O)N[C@@H](CCCCNC(=O)CCCCCCCCCCCCCCC(=O)O)C(=O)N[C@@H](CCC(N)=O)C(=O)N[C@@H](CCC(N)=O)C(=O)N[C@@H](CCC(=O)O)C(=O)N[C@@H](Cc1ccccc1)C(=O)N[C@H](C(=O)N[C@@H](CCC(=O)O)C(=O)N[C@@H](Cc1c[nH]c2ccccc12)C(=O)N[C@@H](CC(C)C)C(=O)N[C@@H](CC(C)C)C(=O)N[C@@H](C)C(=O)N[C@@H](CCC(N)=O)C(=O)N[C@@H](CCCCN)C(=O)N1CCC[C@H]1C(=O)N[C@@H](CO)C(=O)N[C@@H](CO)C(=O)NCC(=O)N[C@@H](C)C(=O)N1CCC[C@H]1C(=O)N1CCC[C@H]1C(=O)N1CCC[C@H]1C(=O)N[C@@H](CO)C(=O)O)C(C)C)[C@@H](C)CC
B4: AT718 (peptide)
peptide: EGTFISEYSIALEKIK(C16 diacid)QQEFVEWLLAQKPSSGAPPPS-OH
B5: AT716 (peptide)
peptide: EGTFISEYSI[Aib]MEKIK(C16 diacid)QQDFVEWLLAQKPSSGAPPPS-OH
modifications: N-terminus assumed
SMILES: CC[C@H](C)[C@H](NC(=O)[C@H](CCCCN)NC(=O)[C@H](CCC(=O)O)NC(=O)[C@H](CCSC)NC(=O)C(C)(C)NC(=O)[C@@H](NC(=O)[C@H](CO)NC(=O)[C@H](Cc1ccc(O)cc1)NC(=O)[C@H](CCC(=O)O)NC(=O)[C@H](CO)NC(=O)[C@@H](NC(=O)[C@H](Cc1ccccc1)NC(=O)[C@@H](NC(=O)CNC(=O)[C@@H](N)CCC(=O)O)[C@@H](C)O)[C@@H](C)CC)[C@@H](C)CC)C(=O)N[C@@H](CCCCNC(=O)CCCCCCCCCCCCCCC(=O)O)C(=O)N[C@@H](CCC(N)=O)C(=O)N[C@@H](CCC(N)=O)C(=O)N[C@@H](CC(=O)O)C(=O)N[C@@H](Cc1ccccc1)C(=O)N[C@H](C(=O)N[C@@H](CCC(=O)O)C(=O)N[C@@H](Cc1c[nH]c2ccccc12)C(=O)N[C@@H](CC(C)C)C(=O)N[C@@H](CC(C)C)C(=O)N[C@@H](C)C(=O)N[C@@H](CCC(N)=O)C(=O)N[C@@H](CCCCN)C(=O)N1CCC[C@H]1C(=O)N[C@@H](CO)C(=O)N[C@@H](CO)C(=O)NCC(=O)N[C@@H](C)C(=O)N1CCC[C@H]1C(=O)N1CCC[C@H]1C(=O)N1CCC[C@H]1C(=O)N[C@@H](CO)C(=O)O)C(C)C
B6: AT715 (peptide)
peptide: Glutaryl-GTFISDYSI[Aib]MDKIK(C16 diacid)QQDFVEWLLAQKPSSGAPPPS-OH
B7: AT714 (peptide)
peptide: EGTFISEYSI[Aib]LEKIK([AEEA-AEEA-γGlu-C18 diacid])QQEFVEWLLAQKPSSGAPPPS-NH2
modifications: N-terminus assumed
SMILES: CC[C@H](C)[C@H](NC(=O)[C@H](CCCCN)NC(=O)[C@H](CCC(=O)O)NC(=O)[C@H](CC(C)C)NC(=O)C(C)(C)NC(=O)[C@@H](NC(=O)[C@H](CO)NC(=O)[C@H](Cc1ccc(O)cc1)NC(=O)[C@H](CCC(=O)O)NC(=O)[C@H](CO)NC(=O)[C@@H](NC(=O)[C@H](Cc1ccccc1)NC(=O)[C@@H](NC(=O)CNC(=O)[C@@H](N)CCC(=O)O)[C@@H](C)O)[C@@H](C)CC)[C@@H](C)CC)C(=O)N[C@@H](CCCCNC(=O)COCCOCCNC(=O)COCCOCCNC(=O)CC[C@H](NC(=O)CCCCCCCCCCCCCCCCC(=O)O)C(=O)O)C(=O)N[C@@H](CCC(N)=O)C(=O)N[C@@H](CCC(N)=O)C(=O)N[C@@H](CCC(=O)O)C(=O)N[C@@H](Cc1ccccc1)C(=O)N[C@H](C(=O)N[C@@H](CCC(=O)O)C(=O)N[C@@H](Cc1c[nH]c2ccccc12)C(=O)N[C@@H](CC(C)C)C(=O)N[C@@H](CC(C)C)C(=O)N[C@@H](C)C(=O)N[C@@H](CCC(N)=O)C(=O)N[C@@H](CCCCN)C(=O)N1CCC[C@H]1C(=O)N[C@@H](CO)C(=O)N[C@@H](CO)C(=O)NCC(=O)N[C@@H](C)C(=O)N1CCC[C@H]1C(=O)N1CCC[C@H]1C(=O)N1CCC[C@H]1C(=O)N[C@@H](CO)C(N)=O)C(C)C
B8: AT717 (peptide)
peptide: Glutaryl-GTFISEYSI[Aib]LEKIK(C16 diacid)QQEFVEWLLAQKPSSGAPPPS-OH
SMILES: CC[C@H](C)[C@H](NC(=O)[C@H](CCCCN)NC(=O)[C@H](CCC(=O)O)NC(=O)[C@H](CC(C)C)NC(=O)C(C)(C)NC(=O)[C@@H](NC(=O)[C@H](CO)NC(=O)[C@H](Cc1ccc(O)cc1)NC(=O)[C@H](CCC(=O)O)NC(=O)[C@H](CO)NC(=O)[C@@H](NC(=O)[C@H](Cc1ccccc1)NC(=O)[C@@H](NC(=O)CNC(=O)CCCC(=O)O)[C@@H](C)O)[C@@H](C)CC)[C@@H](C)CC)C(=O)N[C@@H](CCCCNC(=O)CCCCCCCCCCCCCCC(=O)O)C(=O)N[C@@H](CCC(N)=O)C(=O)N[C@@H](CCC(N)=O)C(=O)N[C@@H](CCC(=O)O)C(=O)N[C@@H](Cc1ccccc1)C(=O)N[C@H](C(=O)N[C@@H](CCC(=O)O)C(=O)N[C@@H](Cc1c[nH]c2ccccc12)C(=O)N[C@@H](CC(C)C)C(=O)N[C@@H](CC(C)C)C(=O)N[C@@H](C)C(=O)N[C@@H](CCC(N)=O)C(=O)N[C@@H](CCCCN)C(=O)N1CCC[C@H]1C(=O)N[C@@H](CO)C(=O)N[C@@H](CO)C(=O)NCC(=O)N[C@@H](C)C(=O)N1CCC[C@H]1C(=O)N1CCC[C@H]1C(=O)N1CCC[C@H]1C(=O)N[C@@H](CO)C(=O)O)C(C)C

Biological target: T1, human GIP receptor
Test: cell-based or functional assay

Row | Binder | cAMP antagonism % inhib (CisBio assay) | cAMP antagonism nM (IC50, CisBio assay) | cAMP antagonism pIC50 (CisBio assay)
1 | B1 | 91% | 0.794 nM | 9.1
2 | B2 | 100% | 0.473 nM | 9.3
3 | B3 | 100% | 1.08 nM | 9

Biological target: T1, human GIP receptor
Test: cell-based or functional assay
Remark: another data set of the same source

Row | Binder | nM (Kb, Gaddum assay, cAMP) | pKb (Gaddum assay, cAMP)
4 | B4 | 0.33 nM | 9.5
5 | B5 | 0.29 nM | 9.5
6 | B6 | 0.19 nM | 9.7
7 | B7 | 0.43 nM | 9.4
8 | B8 | 0.17 nM | 9.8

Source: patent publication US20230416330A1, “Optimized GIP Peptide Analogues” (Antag Therapeutics ApS, priority 2019, published 2023)
